The test has as its target T1, flag-tagged hTERT protein from transfected 293T cells (human, UniProt O14746 1-1132).
T1 construct: also called hTERT from 293T cells; 293T lysate
Put plainly: immunoprecipitation from 293T lysate, Western blot with peptide polyclonal antibody. The procedure:
Immunoprecipitation experiments were also carried out to verify the specificity of the 4A5 and 4B5 monoclonal antibodies. Protein G Sepharose beads (Pharmacia) were incubated with anti-mouse IgG (Amersham Biotech) in CHAPS buffer (0.5% CHAPS, 10 mM TRIS, 1 mM NaCl, 10% glycerol, 1 mM DTT, RNase inhibitor, Complete Protease Inhibitor; Boehringer Mannheim) at room temperature for 1 to 4 hours. The beads were washed and then incubated again at room temperature for 1 to 4 hours with 2 µg of one of the following antibodies: anti-GST, peptide polyclonal antibody, RT polyclonal antibody, 4A5 monoclonal antibody, 4B5 monoclonal antibody. For the negative control 4G6 antibody, the beads were incubated with 4G6 antibody in CHAPS buffer.
Following the incubation, the beads were washed with the aforementioned buffer and then incubated in the aforementioned buffer containing either 50 µl of hTERT-s200 generated by the TNT reaction on rabbit reticulocyte (see upper panels in FIG. 2) or 100 µl of 293T lysate (see lower panel in FIG. 2) for 1 to 4 hours at 4° C. The beads were washed again in the aforementioned buffer, the excess buffer removed form the beads and suspended in 4× SDS loading dye (see Sambrook et al, supra.). […] Western blotting was carried out as described above and probed with 0.28 µg/ml of peptide polyclonal hTERT antibody and binding was detected with the ECL method. […]
In general terms: Immunoblotting shows a protein as a band on a membrane.

The text below walks through data of US7078491 (Amgen, dated 2006).

T1 sequence (O14746 whole entry): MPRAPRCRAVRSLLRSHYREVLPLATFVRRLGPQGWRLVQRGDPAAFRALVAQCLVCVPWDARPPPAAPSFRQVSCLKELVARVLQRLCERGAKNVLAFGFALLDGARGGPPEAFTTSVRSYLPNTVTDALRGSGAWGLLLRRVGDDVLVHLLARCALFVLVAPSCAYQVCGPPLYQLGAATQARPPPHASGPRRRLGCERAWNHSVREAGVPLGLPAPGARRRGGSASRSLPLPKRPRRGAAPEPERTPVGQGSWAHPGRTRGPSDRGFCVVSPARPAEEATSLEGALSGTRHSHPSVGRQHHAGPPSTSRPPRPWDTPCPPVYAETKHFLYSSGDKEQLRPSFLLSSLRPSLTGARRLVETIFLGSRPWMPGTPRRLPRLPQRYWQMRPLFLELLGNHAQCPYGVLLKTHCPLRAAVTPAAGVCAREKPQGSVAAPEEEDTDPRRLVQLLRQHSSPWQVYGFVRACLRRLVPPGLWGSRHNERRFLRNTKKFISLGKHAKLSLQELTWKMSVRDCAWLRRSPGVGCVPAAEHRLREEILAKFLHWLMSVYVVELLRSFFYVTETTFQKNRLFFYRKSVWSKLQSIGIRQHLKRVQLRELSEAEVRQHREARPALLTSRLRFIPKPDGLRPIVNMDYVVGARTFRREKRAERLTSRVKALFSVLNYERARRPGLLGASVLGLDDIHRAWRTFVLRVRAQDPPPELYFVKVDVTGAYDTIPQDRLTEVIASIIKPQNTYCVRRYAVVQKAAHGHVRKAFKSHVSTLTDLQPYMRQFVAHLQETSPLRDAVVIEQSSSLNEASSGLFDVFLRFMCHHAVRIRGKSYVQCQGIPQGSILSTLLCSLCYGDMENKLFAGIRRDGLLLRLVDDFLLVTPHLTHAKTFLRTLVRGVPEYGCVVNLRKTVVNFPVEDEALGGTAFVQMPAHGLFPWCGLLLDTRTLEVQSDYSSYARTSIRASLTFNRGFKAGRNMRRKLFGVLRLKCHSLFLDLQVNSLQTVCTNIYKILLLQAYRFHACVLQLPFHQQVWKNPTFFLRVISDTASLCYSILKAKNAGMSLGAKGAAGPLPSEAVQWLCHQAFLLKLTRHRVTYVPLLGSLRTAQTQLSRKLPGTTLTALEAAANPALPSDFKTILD

B1: 4A5 monoclonal antibody (hybridoma 4A5, ATCC PTA-2412) (antibody, V domains shown)
VH: EVKLVESGGGLVKPGGSLKLSCAASGFTFSSYAMSWVRQTPEKRLEWVASISSGGNTYYPDNVQGRFTISRDNARNILYLQMSSLRSEDTAMFYCAREGVYDTYGGVDYWGQGTTLTVSS
VL: DIVLTQSPTSLAVSLGQRATISCKASQSVDYDGDSFINWYQQTPGQPPKLLIYAASNLASGIPARFSGSGSGTDFTLNIHPVEEEDAATYYCQQSNEAPPTFGGGTKLEI
notes: Mouse monoclonal from hybridoma, characterized as IgG2B type, kappa light chain primers used; also called 4A5 mAb; 45A
As for B1, the binding result is listed as “binds”.
